Test [1] addresses MHC class II molecules on MHC class II-expressing Raji cells (human). In words: transfer cell ELISA, Raji cells; 15.63 ng/ml. (In general: In an ELISA, binding on a coated surface is turned into a signal by an enzyme label.)
For test [2] the target is unchanged. The test can be described thus: direct ELISA, plate-immobilised Raji cells; 3% gelatin, 10,000 cells; 31.25 ng/ml.
Test [3] has the same target. In words: direct ELISA, plate-immobilised Raji cells; 3% gelatin, 2,500 cells; 500 ng/ml.
The target is the same in test [4]. The test can be described thus: BLI; immobilised sample, Raji cells in solution; dark control of FIG. 24. On the technique in general: BLI is a label-free optical method that tracks binding on a fibre tip over time.
The target is the same in test [5]. In words: direct ELISA, plate-immobilised Raji cells; 0.5% Casein, 10,000 cells; 62.5 ng/ml.
The target is the same in test [6]. In words: direct ELISA, plate-immobilised Raji cells; 0.5% Casein, 2,500 cells; 1000 ng/ml.
Test [7] has the same target. In words: direct ELISA, plate-immobilised Raji cells; 3% gelatin, 2,500 cells; 1000 ng/ml.
Test [8] shares this target. In words: transfer cell ELISA, Raji cells; 62.5 ng/ml.
Test [9] has the same target. The test can be described thus: BLI; immobilised sample, Raji cells in solution; pH 7.0 control of FIG. 22.
Test [10] shares this target. In words: direct ELISA, plate-immobilised Raji cells; 0.5% Casein, 10,000 cells; 250 ng/ml.
Test [11] shares this target. In words: direct ELISA, plate-immobilised Raji cells; 3% gelatin, 5,000 cells; 125 ng/ml.
The target is the same in test [12]. In words: transfer cell ELISA, Raji cells; 31.25 ng/ml.
For test [13] the target is unchanged. In words: direct ELISA, plate-immobilised Raji cells; 3% gelatin, 2,500 cells; 250 ng/ml.
Test [14] has the same target. In words: direct ELISA, plate-immobilised Raji cells; 5% BSA, 10,000 cells; 500 ng/ml.
The target is the same in test [15]. The test can be described thus: direct ELISA, plate-immobilised Raji cells; 10% FBS, 5,000 cells; 31.25 ng/ml.
Test [16] shares this target. The test can be described thus: transfer cell ELISA, Raji cells; 15.63 ng/ml; plate row D.
Test [17] has the same target. In words: direct ELISA, plate-immobilised Raji cells; 10% FBS, 10,000 cells; 1000 ng/ml.
Test [18] has the same target. In words: direct ELISA, plate-immobilised Raji cells; 5% BSA, 2,500 cells; 125 ng/ml.
Test [19] has the same target. The test can be described thus: transfer cell ELISA, Raji cells; 500 ng/ml; plate row D.
Test [20] has the same target. In words: transfer cell ELISA, Raji cells; 15.63 ng/ml; plate row C.
Test [21] has the same target. In words: direct ELISA, plate-immobilised Raji cells; 10% FBS, 2,500 cells; 125 ng/ml.
Test [22] shares this target. The test can be described thus: direct ELISA, plate-immobilised Raji cells; 5% BSA, 10,000 cells; 250 ng/ml.
Test [23] has the same target. The test can be described thus: direct ELISA, plate-immobilised Raji cells; 5% BSA, 10,000 cells; 31.25 ng/ml.
Test [24] has the same target. In words: transfer cell ELISA, Raji cells; 250 ng/ml; plate row D.
For test [25] the target is unchanged. In words: direct ELISA, plate-immobilised Raji cells; 10% FBS, 10,000 cells; 250 ng/ml.
Test [26] has the same target. In words: direct ELISA, plate-immobilised Raji cells; 5% BSA, 2,500 cells; 62.5 ng/ml.
Test [27] has the same target. In words: direct ELISA, plate-immobilised Raji cells; 10% FBS, 2,500 cells; 500 ng/ml.
Test [28] has the same target. In words: transfer cell ELISA, Raji cells; 62.5 ng/ml; plate row C.
Test [29] has the same target. In words: transfer cell ELISA, Raji cells; 7.813 ng/ml; plate row C.
For test [30] the target is unchanged. The test can be described thus: direct ELISA, plate-immobilised Raji cells; 10% FBS, 5,000 cells; 62.5 ng/ml.
The target is the same in test [31]. The test can be described thus: transfer cell ELISA, Raji cells; 1.953 ng/ml; plate row D.
The target is the same in test [32]. In words: direct ELISA, plate-immobilised Raji cells; 10% FBS, 2,500 cells; 1000 ng/ml.
For test [33] the target is unchanged. The test can be described thus: transfer cell ELISA, Raji cells; 31.25 ng/ml; plate row C.
Test [34] shares this target. The test can be described thus: direct ELISA, plate-immobilised Raji cells; 5% BSA, 5,000 cells; 31.25 ng/ml.

“IMP321, recombinant soluble human LAG-3Ig fusion protein (Fc fusion)”: the OD (ELISA signal) is 0.098 OD in test [1]; 0.389 OD in test [2]; 2.56 OD in test [3]; 0.142 OD in test [5]; 0.112 OD in test [6]; 2.6 OD in test [7]. Moreover, the OD (ELISA signal) turned out to be 0.223 OD in test [8]; 0.241 OD in test [10]; 0.823 OD in test [11]; 0.159 OD in test [12]; 1.95 OD in test [13]. Further, the Bioactivity (binding) was found to be 100% in [4] and 94% in test [9].
Take “IMP321 treated with Peptide-N-Glycosidase F (PNGase F) (Fc fusion)”: the OD (ELISA signal) in [14] worked out at 1.3 OD; in test [15] it was 0.304 OD; in test [16], 0.029 OD; in [17], 1.34 OD; in test [18] it was 0.415 OD; in test [19] it was 0.594 OD. Also, the OD (ELISA signal) stood at 0.035 OD in [20]; 1.12 OD in test [21]; 0.91 OD in [22]; 0.31 OD in test [23]; 0.361 OD in test [24]; 0.762 OD in [25]. In addition, the OD (ELISA signal) came to 0.297 OD in test [26]; 1.8 OD in test [27]; 0.082 OD in [28]; 0.02 OD in test [29]; 0.28 OD in test [30]; 0.01 OD in test [31]. The values for the OD (ELISA signal) in [32], in [33] and in test [34] were 2.39 OD, 0.042 OD and 0.297 OD, respectively.

For the origin of these results see patent publication US20190361034A1.
